Data reported in patent US20050196380A1, “Method for delivering therapeutic proteins to the intradermal compartment” (priority 2004, published 2005).
Where “and” joins values, the source holds several entries; their conditions need not be identical. Identical values can stand only once. Entries after “also recorded” stand apart in the source; their conditions may differ.

Assays:
female Wistar rats [1] = conditions: rat, in vivo
Procedure: MATERIALS AND METHODS: Antibody titers were evaluated using an ELISA assay. 100 μL of 1 μg/mL of rat interferon beta (Cell Sciences Inc. (Canton, Mass.)) in coating buffer was added to the wells of a 96 well plate. The plate was incubated at 4° C. overnight. Well contents were removed and the wells were blocked with 5% skim milk in PBST for 2 hours at 37° C. Wells were washed and 100 μL of serum samples were added to the first row of wells. Samples were serially diluted across the plate. The plate was incubated for 1 hour at 37° C. and washed. 100 μL of 1:4000 diluted, anti-rat HRP-conjugated antibody was added to each well and the plate was incubated for 30-60 minutes at 37° C. 100 μL of TMB color developer was added to each well. 200 μL of hydrochloric acid reaction stopper was added to each well. The plate was read at 450 nm. The antibody titer is the dilution giving 3 times absorbance of blank serum.
STUDY DESIGN: A chronic dosing regimen was performed in female Wistar rats using recombinant rat IFN-β (Cell Sciences Inc. (Canton, Mass.)). An injection route comparison was performed evaluating the immunogenicity of IFN-β upon injection intradermally or intramuscularly. IFN-β was injected intradermally using BD's 34 Ga, 1 mm needle and injected intramuscularly using BD 30 Ga×0.5″ to the hamstring muscle. […] Blood samples were collected once a week.

female Wistar rats [2] = conditions: rat, in vivo; remark: listed apart in the source
female Wistar rats [3] = test: Visual observation of injection site irritation; format: in vivo, rat; conditions: ID administration, 3 times/wk for 24 weeks
Description: (§1) Blood samples were collected once a week.
FIGS. 16A-B show injection site photos of IFN-β to female Wistar rats. Panel A is an intramuscular injection. The back of a rat's leg is shown. The injection was made into the hamstring muscle. Panel B is an intradermal injection on the rat's back. The “bleb” is circled. No irritation is evident in either photo. These photos were taken immediately post-injection.

female Wistar rats [4] = test: Histological evaluation of injection site following IM and ID administration of interferon-beta; format: in vivo, rat
Description: Sample Preparation: For ID injection, the skin was removed from each injection site and placed on a small card. The excised skin was approximately lcm in diameter with the needle insertion point in the center. The center of the injection was marked with black tattoo ink at time of injection to help identify the needle insertion point. Samples were placed in individual containers with 10% formalin for fixation. For IM injection, the needle insertion point was marked with black tattoo ink at the time of injection. The skin was carefully lifted and the muscle surface directly below the needle insertion point was marked with black tattoo ink. The hamstring muscle was collected and placed on a small card. Samples were placed in individual containers with 10% formalin for fixation. […]
Sample Identification: Samples are identified by the following system. In animals 801, 803, 804, 806, 807, 808, 809 and 810 intramuscular injections were made to the hamstring muscle of female Wistar rats. In animals 811, 812, 813, 814, 815, 816, 817, 818, 819 and 820 intradermal injections (approximately 1 mm deep) were made to the lateral dorsum of female Wistar rats.
Specimen Preparation: A single section was taken from each sample. Tissue was blocked to a size appropriate for sectioning. The section was taken through the needle insertion track. Sections were H&E stained and evaluated. If evidence of irritation was observed, further sections were taken to determine the extent of the irritation. Samples were graded on a multi-parameter irritancy scale. Histological alterations were graded on the following 5-grade scale: • Grade 0: Normal/Absent/None • Grade 1: Minimal/Cell Degeneration • Grade 2: Mild/Cell Necrosis • Grade 3: Moderate/Focal Erosion • Grade 4: Marked/Massive/Generalized Erosion • Present: Finding present/Severity not scored
In addition to the grading scale, descriptions of changes and findings were documented. Measurements were taken of the Width and Depth of any site irritation as well as skin thickness. Representative photos were taken of each condition.
Study Design: Rat interferon beta (Cell Sciences Inc. (Canton, Mass.)) was administered IM or ID in phosphate buffered saline using methods described supra. The animals were divided according to the following scheme:
Intramuscular Group—Day 1: The hair on the back and on the back of the rear leg was clipped. Injection was performed using a BD 30 G×0.5″ needle to the hamstring muscle. 50 μL was injected. The center of the injection was marked with black tattoo ink to help aid in injection track identification. Rats were returned to their cages for recovery.
Intramuscular Group—Day 2 (24 hrs. post-injection): Rats were euthanized by CO2 asphxiation and the skin from rear leg was removed. The muscle directly below the needle insertion point on the skin was marked with black tattoo ink. The hamstring muscle was excised, placed on small card and stored in 10% formalin solution.
Intradermal group-Day 1 The hair on the lateral dorsum was closely clipped. and injection was performed using a 1 mm BD microneedle. 50 μL was injected The center of the injection was marked with black tattoo ink to help aid needle track identification. Rats were returned to their cages for recovery.
[…] A 1 cm diameter margin of skin (full-thickness) around the injection site was excised. Skin was placed on a small card and stored in 10% formalin solution.

female Wistar rats [5] = test: Isotype specific (IgG1, IgG2b) antibody response against IFN-β by ELISA; format: in vivo, rat
Procedure: Isotype specific antibody responses against IFN-β were determined at weeks 2 and 24 post-injection using an ELISA Quantification Kit, commercially available from Bethyl Laboratories (Bethyl Inc., Montgomery, Tex.). A 96 well microtiter plate (Nunc Maxi-sorb plate) was coated with 1 μg/mL of IFN antigen and incubated overnight at 4° C. (to generate a standard curve wells were coated with 1 μL of capture antibody to 100 μL coating buffer); plates were washed with 50 mM Tris buffered saline, pH 8.0, 0.05% Tween (Sigma #T9039); 200 μL of Post Coat/Block solution (50 mM Tris buffered saline, pH 8.0, 1% BSA; Sigma #T6789) was added per well and incubated covered for 30 minutes at room temperature. Standards were prepared according to the package insert using the Sample/Conjugate Diluent (0.5 mL of 10% Tween 20; Sigma # P7949) per 100 mL of PostCoat/Block Solution; sample dilutions were made using the Sample/Conjugate Diluent; 100 μL of standard or sample was transferred to assigned wells and incubated for 1 hour at room temperature; conjugate was prepared according to package insert (1:20,000 for IgG1 and 1:40,000 for IgG2b); 100 μL of the conjugate was added per well and incubated for 1 hour at room temperature; 100 μL of TMB per well was added and incubated at room temperature for 30 minutes; 200 μL of 0.5 M H2SO4 per well was added to stop the reaction; plates were read at 450 nm.
as §1

[6] = ID injection, individual animals, marked grade

B1: IFN-β: recombinant rat IFN-β (Cell Sciences Inc., Canton, Mass.) (protein, UniProt P70499 22-184, looked up)
Interferon beta: IDYKQLQFRQSTSIRTCQKLLRQLNGRLNLSYRTDFKIPMEVMHPSQMEKSYTAFAIQVMLQNVFLVFRSNFSSTGWNETIVESLLDELHQQTELLEIILKEKQEERLTWVTSTTTLGLKSYYWRVQRYLKDKKYNSYAWMVVRAEVFRNFSIILRLNRNFQN
animals with increase in titer from week 12 (female Wistar rats [1]): one | animals with marked increase in titer from week 12 (female Wistar rats [1]): Three | antibody response, ID vs IM (female Wistar rats [1]): slightly stronger | antibody response, IM vs ID (female Wistar rats [1]): slightly higher | antibody titers by ELISA, IM vs ID (female Wistar rats [1]): not significantly different | mean antibody response, IM vs ID (female Wistar rats [1]): higher mean antibody response | mean antibody titers by ELISA, IM vs ID (two sample t-test) (female Wistar rats [1]): not significantly different | mean IFN-β specific NAbs titers, IM vs ID (female Wistar rats [2]): not significantly different | acute or chronic injection site irritation (external, visual) (female Wistar rats [3]): No external acute or chronic injection site irritation | cellular reaction, in general (female Wistar rats [4]; 2 weeks): minimal | infiltration of injection sites with lymphocytes and neutrophils (female Wistar rats [4]; 2 weeks, intradermal sites): minimally infiltrated | inflammatory cell infiltrates of injection sites, compared with intradermal sites (female Wistar rats [4]; 2 weeks, intramuscular sites): more prominent | cellular reaction (inflammation) (female Wistar rats [4]; 24 weeks, ID injection): minimal to moderate | Irritation Index (female Wistar rats [4]; ID injection, individual animals 811-820, 24 hours post-injection): 3 and 2 | Dermis, leukocyte infiltration (per 40× field) (female Wistar rats [4]; [6]): Moderate - 51-100 (Moderate - 51-100) | Edema grade (female Wistar rats [4]; [6]): Absent | Epidermis reaction grade (female Wistar rats [4]; [6]): Normal, intact | Vascular Congestion grade (female Wistar rats [4]; [6]): Absent | overall irritation index designation / histopathological classification of irritation (female Wistar rats [4]; ID sites): minimal | IFN-β specific IgG1 antibody, ID vs IM (female Wistar rats [5]; week 2): only one animal showed any detectable IgG1 antibody; also recorded: higher | IFN-β specific IgG2b antibody (female Wistar rats [5]; week 2, IM or ID): no IgG2b was detectable | mean IFN-β specific IgG2b concentration, ID vs IM (female Wistar rats [5]; week 24): not significantly different; also recorded: comparable
